The text below walks through data of IntAct's records for PubMed 21890701.

To fix the notation:
B1: Flagellar motor switch protein FliG (Escherichia coli (strain K12)), P0ABZ1 (parent)
chain: MSNLTGTDKSVILLMTIGEDRAAEVFKHLSQREVQTLSAAMANVTQISNKQLTDVLAEFEQEAEQFAALNINANDYLRSVLVKALGEERAASLLEDILETRDTASGIETLNFMEPQSAADLIRDEHPQIIATILVHLKRAQAADILALFDERLRHDVMLRIATFGGVQPAALAELTEVLNGLLDGQNLKRSKMGGVRTAAEIINLMKTQQEEAVITAVREFDGELAQKIIDEMFLFENLVDVDDRSIQRLLQEVDSESLLIALKGAEQPLREKFLRNMSQRAADILRDDLANRGPVRLSQVENEQKAILLIVRRLAETGEMVIGSGEDTYV
partner: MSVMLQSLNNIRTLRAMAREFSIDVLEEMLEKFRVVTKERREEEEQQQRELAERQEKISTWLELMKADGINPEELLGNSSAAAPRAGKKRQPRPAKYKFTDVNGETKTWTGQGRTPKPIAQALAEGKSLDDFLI
B2: DNA-binding protein H-NS (Escherichia coli (strain K12)), P0ACF8 (parent)
chain: MSEALKILNNIRTLRAQARECTLETLEEMLEKLEVVVNERREEESAAAAEVEERTRKLQQYREMLIADGIDPNELLNSLAAVKSGTKAKRAQRPAKYSYVDENGETKTWTGQGRTPAVIKKAMDEQGKSLDDFLIKQ
partner: B1 chain
B3: Flagellar motor switch protein FliG (Escherichia coli (strain K12)), P0ABZ1 (parent)
chain: B1 chain
partner: B2 chain

In the first test the parent is B1. Particulars: with stpa_ecoli stpA.
Turning to MSNLTGTDKSVILLMTIGEDRAAEVFKHLSQREVQTLSAAMANVTQISNKQLTDVLAEFEQEAEQFAALNINANDYLRSVLVKALGEERAASLLEDILETRDTASGIETLNFMEPQSAADLIRDEWPQIIATILVHLKRAQAADILALFDERLRHDVMLRIATFGGVQPAALAELTEVLNGLLDGQNLKRSKMGGVRTAAEIINLMKTQQEEAVITAVREFDGELAQKIIDEMFLFENLVDVDDRSIQRLLQEVDSESLLIALKGAEQPLREKFLRNMSQRAADILRDDLANRGPVRLSQVENEQKAILLIVRRLAETGEMVIGSGEDTYV [H126W], the “effect of a mutation on the interaction” value was “disrupting interaction strength”.

For MSNLTGTDKSVILLMTIGEDRAAEVFKHLSQREVQTLSAAMANVTQISNKQLTDVLAEFEQEAEQFAALNINANDYLRSVLVKALGEERAASLLEDILETRDTASGIETLNFMEPQSAADLIRDWHPQIIATILVHLKRAQAADILALFDERLRHDVMLRIATFGGVQPAALAELTEVLNGLLDGQNLKRSKMGGVRTAAEIINLMKTQQEEAVITAVREFDGELAQKIIDEMFLFENLVDVDDRSIQRLLQEVDSESLLIALKGAEQPLREKFLRNMSQRAADILRDDLANRGPVRLSQVENEQKAILLIVRRLAETGEMVIGSGEDTYV [E125W], the “effect of a mutation on the interaction” value was “disrupting interaction strength”.

For MSNLTGTDKSVILLMTIGEDRAAEVFKHLSQREVQTLSAAMANVTQISNKQLTDVLAEFEQEAEQFAALNINANDYLRSVLVKALGEERAASLLEDILETRDTASGIETLNFMEPQSAADLIRDEHPQIIATILVHLKRAQAADILALFDERLRHDVMLWIATFGGVQPAALAELTEVLNGLLDGQNLKRSKMGGVRTAAEIINLMKTQQEEAVITAVREFDGELAQKIIDEMFLFENLVDVDDRSIQRLLQEVDSESLLIALKGAEQPLREKFLRNMSQRAADILRDDLANRGPVRLSQVENEQKAILLIVRRLAETGEMVIGSGEDTYV [R160W], the “effect of a mutation on the interaction” value is “disrupting interaction strength”.

Another test covers variants of B2. The following applies: with flig_ecoli fliG, P0ABZ1.
As for MSEALKILNNIRTLRAQARECTLETLEEMLEKLEVVVNERREEESAAAAEVEERTRKLQQYREMLIADGIDPNELLNSLAAVKSGTKAKRAQRPAKYSYVDENGETKTWTGQDRTPAVIKKAMDEQGKSLDDFLIKQ [G113D], the “effect of a mutation on the interaction” value is on record as “decreasing interaction strength”.

For MSEALKILNNIRTLRAQARECTLETLEEMLEKLEVVVNERREEESAAAAEVEERTRKLQQYREMLIADGIDPNELLNSLAAVKSGTKAKRAQRPAKYSYVDENGETKTWTGQGWTPAVIKKAMDEQGKSLDDFLIKQ [R114W], the “effect of a mutation on the interaction” value is recorded as “decreasing interaction strength”.

Turning to MSEALKILNNIRTLRAQARECTLETLEEMLEKLEVVVNERREEESAAAAEVEERTRKLQQYREMLIADGIDPNELLNSLAAVKSGTKAKRAQRPAKYSYVDENGETKTWTGDGRTPAVIKKAMDEQGKSLDDFLIKQ [Q112D], the “effect of a mutation on the interaction” value is on record as “decreasing interaction”.

The variants in a further test derive from B3. Particulars: with hns_ecoli hns, P0ACF8.
As to MSNLTGTDKSVILLMTIGEDRAAEVFKHLSQREVQTLSAAMANVTQISNKQLTDVLAEFEQEAEQFAALNINANDYLRSVLVKALGEERAASLLEDILETRDTASGIETLNFMEPQSAADLIRDEHPWIIATILVHLKRAQAADILALFDERLRHDVMLRIATFGGVQPAALAELTEVLNGLLDGQNLKRSKMGGVRTAAEIINLMKTQQEEAVITAVREFDGELAQKIIDEMFLFENLVDVDDRSIQRLLQEVDSESLLIALKGAEQPLREKFLRNMSQRAADILRDDLANRGPVRLSQVENEQKAILLIVRRLAETGEMVIGSGEDTYV [Q128W], the “effect of a mutation on the interaction” value is recorded as “decreasing interaction strength”.

For the variant MSNLTGTDKSVILLMTIGEDRAAEVFKHLSQREVQTLSAAMANVTQISNKQLTDVLAEFEQEAEQFAALNINANDYLRSVLVKALGEERAASLLEDILETRDTASGIETLNFMEPQSAADLIRDEWPQIIATILVHLKRAQAADILALFDERLRHDVMLRIATFGGVQPAALAELTEVLNGLLDGQNLKRSKMGGVRTAAEIINLMKTQQEEAVITAVREFDGELAQKIIDEMFLFENLVDVDDRSIQRLLQEVDSESLLIALKGAEQPLREKFLRNMSQRAADILRDDLANRGPVRLSQVENEQKAILLIVRRLAETGEMVIGSGEDTYV [H126W], the “effect of a mutation on the interaction” value is “disrupting interaction strength”.

MSNLTGTDKSVILLMTIGEDRAAEVFKHLSQREVQTLSAAMANVTQISNKQLTDVLAEFEQEAEQFAALNINANDYLRSVLVKALGEERAASLLEDILETRDTASGIETLNFMEPQSAADLIRDWHPQIIATILVHLKRAQAADILALFDERLRHDVMLRIATFGGVQPAALAELTEVLNGLLDGQNLKRSKMGGVRTAAEIINLMKTQQEEAVITAVREFDGELAQKIIDEMFLFENLVDVDDRSIQRLLQEVDSESLLIALKGAEQPLREKFLRNMSQRAADILRDDLANRGPVRLSQVENEQKAILLIVRRLAETGEMVIGSGEDTYV [E125W]: the “effect of a mutation on the interaction” value was “decreasing interaction strength”.

As for MSNLTGTDKSVILLMTIGEDRAAEVFKHLSQREVQTLSAAMANVTQISNKQLTDVLAEFEQEAEQFAALNINANDYLRSVLVKALGEERAASLLEDILETRDTASGIETLNFMEPQSAADLIRDEHPQIIATILVHLKRAQAADILALFDERLRHDVMLWIATFGGVQPAALAELTEVLNGLLDGQNLKRSKMGGVRTAAEIINLMKTQQEEAVITAVREFDGELAQKIIDEMFLFENLVDVDDRSIQRLLQEVDSESLLIALKGAEQPLREKFLRNMSQRAADILRDDLANRGPVRLSQVENEQKAILLIVRRLAETGEMVIGSGEDTYV [R160W], the “effect of a mutation on the interaction” value was “disrupting interaction strength”.
